From article doi:10.1101/758409

Assays:
[1] = target: DDA1-DDB1ΔB-DCAF15Δpro triplex (human) (UniProt Q66K64); test: BLI
[2] = target: DDA1-DDB1ΔB-DCAF15Δpro triplex (human) (UniProt Q66K64); test: ITC

Sequence of RRM1-RRM2 domain of RBM39 (R1R2) (Q14498 150-331): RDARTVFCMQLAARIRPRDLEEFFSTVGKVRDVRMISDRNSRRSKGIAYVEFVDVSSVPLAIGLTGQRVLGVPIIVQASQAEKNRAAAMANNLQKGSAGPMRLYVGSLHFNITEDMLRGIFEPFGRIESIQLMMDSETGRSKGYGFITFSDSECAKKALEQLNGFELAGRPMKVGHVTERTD

Substance | Kd [1] [µM] | Kd [2] [µM]
R1R2(M265L) (from UniProt Q14498 150-331) (domain or fragment) | 1.2 | 
RRM1-RRM2 domain of RBM39 (R1R2) (from UniProt Q14498 150-331) (domain or fragment) | 4.6 | 6.4
